Tests used:
[1] = molecular target: cyto-EA (β-galactosidase enzyme acceptor fragment localized in the cytoplasm) (E. coli) [β-galactosidase: P00722]; experiment: cell-based or functional assay
[2] = molecular target: EA-NLS/NRS (β-galactosidase enzyme acceptor fragment fused to a nuclear localization signal / nuclear retention signal) (E. coli) [β-galactosidase: P00722]; experiment: cell-based or functional assay

EFC activity, CHO-K1 cyto-EA cells transiently transfected with cJUN-PL, nocodazole and colchicine [1] [fold]	EFC (β-galactosidase chemiluminescence after lysis), CHO-K1 pool, Taxol, nocodazole and colchicine overnight [2] [fold]	EFC activity (β-galactosidase chemiluminescence after lysis), C2C12 cells, nocodazole 1-10 µg/mL [2] [fold]	EFC activity, CHO-K1 clone #69, nocodazole and colchicine [2] [fold]	Substance
2.1	–	–	–	cJUN-PL (c-Jun fused to the PL β-galactosidase enzyme donor fragment)
–	< 4	2	3 to 4	GR-PL (human glucocorticoid receptor fused to PL, a 55 mer α-fragment of β-galactosidase) (from UniProt P04150 1-777)

From patent publication US20070015232A1, “Mitotic index assay” (DiscoveRx, Inc., priority 2005, published 2007)
